According to patent publication US20240392004A1 (IMMUNOWAKE, published 2024):
One block for each binder: values may come before it.

Assays:
[1] = target: T1, human IL-2 receptor (IL-2Rα, IL-2Rβ, IL-2Rγ) (human, UniProt P01589 22-272; P14784 27-551; P31785 23-369); assay: cell-based or functional assay
T1 sequence (looked up) 1: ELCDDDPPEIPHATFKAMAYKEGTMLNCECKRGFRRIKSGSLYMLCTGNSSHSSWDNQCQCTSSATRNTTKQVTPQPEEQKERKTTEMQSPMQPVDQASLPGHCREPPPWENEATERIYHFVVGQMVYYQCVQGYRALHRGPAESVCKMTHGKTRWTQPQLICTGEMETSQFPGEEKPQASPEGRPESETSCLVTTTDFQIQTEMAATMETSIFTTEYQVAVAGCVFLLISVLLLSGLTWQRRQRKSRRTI
T1 sequence (looked up) 2: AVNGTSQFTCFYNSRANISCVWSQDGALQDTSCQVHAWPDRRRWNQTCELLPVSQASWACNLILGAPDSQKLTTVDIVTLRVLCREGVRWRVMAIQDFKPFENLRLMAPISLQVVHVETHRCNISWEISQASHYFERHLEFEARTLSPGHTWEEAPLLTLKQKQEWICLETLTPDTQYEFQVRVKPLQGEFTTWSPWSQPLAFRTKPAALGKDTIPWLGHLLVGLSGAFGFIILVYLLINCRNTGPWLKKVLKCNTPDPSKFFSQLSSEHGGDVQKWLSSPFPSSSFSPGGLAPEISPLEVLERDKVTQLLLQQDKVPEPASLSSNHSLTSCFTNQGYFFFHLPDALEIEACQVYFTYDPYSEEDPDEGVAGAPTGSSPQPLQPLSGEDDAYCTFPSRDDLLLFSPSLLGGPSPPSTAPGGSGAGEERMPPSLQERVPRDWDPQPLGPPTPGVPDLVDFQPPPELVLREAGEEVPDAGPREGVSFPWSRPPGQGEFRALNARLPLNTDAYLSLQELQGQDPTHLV
T1 sequence (looked up) 3: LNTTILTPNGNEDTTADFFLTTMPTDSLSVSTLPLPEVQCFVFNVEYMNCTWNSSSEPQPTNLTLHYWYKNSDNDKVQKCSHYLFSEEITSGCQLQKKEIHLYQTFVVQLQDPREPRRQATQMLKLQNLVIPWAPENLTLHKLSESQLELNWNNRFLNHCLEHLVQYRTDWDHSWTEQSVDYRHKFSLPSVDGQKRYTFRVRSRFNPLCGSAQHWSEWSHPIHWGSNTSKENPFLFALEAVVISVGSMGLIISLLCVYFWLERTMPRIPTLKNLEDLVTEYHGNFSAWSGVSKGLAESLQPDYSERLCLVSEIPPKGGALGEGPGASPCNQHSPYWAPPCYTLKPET

[2] = target: T2, IFN-γ receptor (IFNGR1 and IFNGR2) (UniProt P15260 18-489; P38484 22-337, limits assumed); assay: cell-based or functional assay
T2 sequence (looked up) 1: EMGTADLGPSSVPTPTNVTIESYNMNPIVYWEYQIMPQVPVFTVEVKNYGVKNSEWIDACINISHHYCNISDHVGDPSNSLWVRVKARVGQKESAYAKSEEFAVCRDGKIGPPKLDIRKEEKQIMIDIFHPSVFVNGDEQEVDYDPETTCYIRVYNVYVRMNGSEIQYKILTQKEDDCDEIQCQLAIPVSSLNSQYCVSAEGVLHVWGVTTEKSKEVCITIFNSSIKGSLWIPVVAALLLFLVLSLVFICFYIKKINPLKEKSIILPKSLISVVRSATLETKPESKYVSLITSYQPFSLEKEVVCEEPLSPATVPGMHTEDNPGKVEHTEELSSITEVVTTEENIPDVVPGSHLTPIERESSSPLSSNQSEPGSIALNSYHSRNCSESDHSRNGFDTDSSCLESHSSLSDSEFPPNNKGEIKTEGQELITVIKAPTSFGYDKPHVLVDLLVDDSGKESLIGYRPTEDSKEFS
T2 sequence (looked up) 2: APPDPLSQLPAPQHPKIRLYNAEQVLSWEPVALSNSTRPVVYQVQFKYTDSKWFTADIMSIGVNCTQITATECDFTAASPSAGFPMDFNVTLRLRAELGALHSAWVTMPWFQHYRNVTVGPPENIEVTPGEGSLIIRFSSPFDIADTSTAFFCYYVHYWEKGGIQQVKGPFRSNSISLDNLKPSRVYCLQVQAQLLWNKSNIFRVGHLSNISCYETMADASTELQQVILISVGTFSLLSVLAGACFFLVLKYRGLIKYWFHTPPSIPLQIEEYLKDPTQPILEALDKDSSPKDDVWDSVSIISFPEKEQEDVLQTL

[3] = target: human IL-12 receptor complex (IL-12Rβ1 and IL-12Rβ2) (human, UniProt P42701 24-662; Q99665 24-862); assay: cell-based or functional assay
human IL-12 receptor complex (IL-12Rβ1 and IL-12Rβ2), sequence (Q99665 24-862, chain 2 of 2, other chains not shown): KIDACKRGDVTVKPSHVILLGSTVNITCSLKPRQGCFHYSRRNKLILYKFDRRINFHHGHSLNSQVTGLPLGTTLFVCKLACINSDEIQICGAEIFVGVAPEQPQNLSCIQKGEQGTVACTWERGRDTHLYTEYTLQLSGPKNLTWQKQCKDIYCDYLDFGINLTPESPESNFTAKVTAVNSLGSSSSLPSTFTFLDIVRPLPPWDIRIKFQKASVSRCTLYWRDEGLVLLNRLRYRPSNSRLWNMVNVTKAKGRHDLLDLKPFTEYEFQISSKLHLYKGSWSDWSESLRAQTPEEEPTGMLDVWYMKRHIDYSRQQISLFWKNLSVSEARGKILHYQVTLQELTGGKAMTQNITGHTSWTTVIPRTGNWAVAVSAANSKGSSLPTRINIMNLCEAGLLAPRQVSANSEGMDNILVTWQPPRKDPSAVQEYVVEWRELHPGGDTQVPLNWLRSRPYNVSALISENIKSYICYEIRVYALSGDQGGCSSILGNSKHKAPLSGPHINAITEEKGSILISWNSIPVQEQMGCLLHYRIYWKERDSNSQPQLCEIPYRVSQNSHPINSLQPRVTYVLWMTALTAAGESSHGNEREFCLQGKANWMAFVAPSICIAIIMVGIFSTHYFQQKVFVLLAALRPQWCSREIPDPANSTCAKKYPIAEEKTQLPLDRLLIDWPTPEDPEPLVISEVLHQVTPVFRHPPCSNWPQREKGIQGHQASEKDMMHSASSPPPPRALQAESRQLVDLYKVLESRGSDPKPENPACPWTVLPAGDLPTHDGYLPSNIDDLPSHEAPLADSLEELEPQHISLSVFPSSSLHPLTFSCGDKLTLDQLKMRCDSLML

[4] = target: T3, human TIGIT on HEK-Blue reporter cells (human, UniProt Q495A1 22-244); assay: cell-based or functional assay
T3 sequence (looked up): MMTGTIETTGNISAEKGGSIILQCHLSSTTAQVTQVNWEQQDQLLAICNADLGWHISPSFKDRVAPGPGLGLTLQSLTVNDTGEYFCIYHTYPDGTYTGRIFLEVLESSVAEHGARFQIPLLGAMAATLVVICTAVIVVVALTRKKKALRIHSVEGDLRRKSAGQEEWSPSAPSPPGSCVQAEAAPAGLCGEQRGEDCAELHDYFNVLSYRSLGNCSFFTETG

mouse PD-1 = target: T4, mouse PD-1 (mouse, UniProt Q02242 25-167, limits assumed); assay: same value as Table 15 (measured in PD-L2-Fc format)
T4 construct: also called mPD-1
T4 sequence (looked up): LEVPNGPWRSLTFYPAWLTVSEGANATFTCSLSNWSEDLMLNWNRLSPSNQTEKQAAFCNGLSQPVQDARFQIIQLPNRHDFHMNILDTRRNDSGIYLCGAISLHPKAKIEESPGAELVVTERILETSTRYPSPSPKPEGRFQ

- Percent IL-2 signal transduction (HEK-IL-2 reporter assay) [1]: 0%
B1: anti-PD-1 antibody nivolumab (Opdivo) (antibody, human IgG4 S228P, kappa, V domains shown)
VH: QVQLVESGGGVVQPGRSLRLDCKASGITFSNSGMHWVRQAPGKGLEWVAVIWYDGSKRYYADSVKGRFTISRDNSKNTLFLQMNSLRAEDTAVYYCATNDDYWGQGTLVTVSS
VL: EIVLTQSPATLSLSPGERATLSCRASQSVSSYLAWYQQKPGQAPRLLIYDASNRATGIPARFSGSGSGTDFTLTISSLEPEDFAVYYCQQSSNWPRTFGQGTKVEIKR

- IFN-γ signal transduction, HEK-IFN-γ [2]: < 0.2%
- IL-12 signal transduction, HEK-IL-12 [3]: 2%
- IL-12 signal transduction, HEK-IL-12-TIGIT [4]: 60%
B2: IFN-γ(A23V/A23V)/CD155-Fc/IL-12(E59A/F60A) (Fc fusion)
chain 1: WPPPGTGDVVVQAPTQVPGFLGDSVTLPCYLQVPNMEVTHVSQLTWARHGESGSMAVFHQTQGPSYSESKRLEFVAARLGAELRNASLRMFGLRVEDEGNYTCLFVTFPQGSRSVDIWLRVLAKPQNTAEVQKVQLTGEPVPMARCVSTGGRPPAQITWHSDLGGMPNTSQVPGFLSGTVTVTSLWILVPSSQVDGKNVTCKVEHESFEKPQLLTVNLTVYYPPEVSISGYDNNWYLGQNEATLTCDARSNPEPTGYNWSTTMGPLPPFAVAQGAQLLIRPVDKPINTTLICNVTNALGARQAELTVQVKEGPPSEHSGISRNGGGGSGGGDKTHTCPPCPAPEDEGGPSVFLFPPKPKDTLMISRTPEVTCVVVDVSHEDPEVKFNWYVDGVEVHNAKTKPREEQYNSTYRVVSVLTVLHQDWLNGKEYKCKVSNKALPAPIEKTISKAKGQPREPQVYVYPPSREEMTKNQVSLTCLVKGFYPSDIAVEWESNGQPENNYKTTPPVLDEDGSFALVSKLTVDKSRWQQGNVFSCSVMHEALHNHYTQKSLSLSPGKGGGGSGGGIWELKKDVYVVELDWYPDAPGEMVVLTCDTPEEDGITWTLDQSSEVLGSGKTLTIQVKAAGDAGQYTCHKGGEVLSHSLLLLHKKEDGIWSTDILKDQKEPKNKTFLRCEAKNYSGRFTCWWLTTISTDLTFSVKSSRGSSDPQGVTCGAATLSAERVRGDNKEYEYSVECQEDSACPAAEESLPIEVMVDAVHKLKYENYTSSFFIRDIIKPDPPKNLQLKPLKNSRQVEVSWEYPDTWSTPHSYFSLTFCVQVQGKSKREKKDRVFTDKTSATVICRKNASISVRAQDRYYSSSWSEWASVPCSGGGGSGGGSGGGGSRNLPVATPDPGMFPCLHHSQNLLRAVSNMLQKARQTLEFYPCTSEEIDHEDITKDKTSTVEACLPLELTKNESCLNSRETSFITNGSCLASRKTSFMMALCLSSIYEDLKMYQVEFKTMNAKLLMDPKRQIFLDQNMLAVIDELMQALNFNSETVPQKSSLEEPDFYKTKIKLCILLHAFRIRAVTIDRVMSYLNAS
chain 2: WPPPGTGDVVVQAPTQVPGFLGDSVTLPCYLQVPNMEVTHVSQLTWARHGESGSMAVFHQTQGPSYSESKRLEFVAARLGAELRNASLRMFGLRVEDEGNYTCLFVTFPQGSRSVDIWLRVLAKPQNTAEVQKVQLTGEPVPMARCVSTGGRPPAQITWHSDLGGMPNTSQVPGFLSGTVTVTSLWILVPSSQVDGKNVTCKVEHESFEKPQLLTVNLTVYYPPEVSISGYDNNWYLGQNEATLTCDARSNPEPTGYNWSTTMGPLPPFAVAQGAQLLIRPVDKPINTTLICNVTNALGARQAELTVQVKEGPPSEHSGISRNGGGSGQDPYVKEAENLKKYFNAGHSDVVDNGTLFLGILKNWKEESDRKIMQSQIVSFYFKLFKNFKDDQSIQKSVETIKEDMNVKFFNSNKKKRDDFEKLTNYSVTDLNVQRKAIHELIQVMAELSPAAKTGKRKRSQMLFRGGGGSGGGGSGGGGSGGGGSQDPYVKEAENLKKYFNAGHSDVVDNGTLFLGILKNWKEESDRKIMQSQIVSFYFKLFKNFKDDQSIQKSVETIKEDMNVKFFNSNKKKRDDFEKLTNYSVTDLNVQRKAIHELIQVMAELSPAAKTGKRKRSQMLFRGGGGGSGGGDKTHTCPPCPAPEKKGGPSVFLFPPKPKDTLMISRTPEVTCVVVDVSHEDPEVKFNWYVDGVEVHNAKTKPREEQYNSTYRVVSVLTVLHQDWLNGKEYKCKVSNKALPAPIEKTISKAKGQPREPQVYVLPPSREEMTKNQVSLLCLVKGFYPSDIAVEWESNGQPENRYMTWPPVLDSDGSFFLYSKLTVDKSRWQQGNVFSCSVMHEALHNHYTQKSLSLSPGK

- Kd (mouse PD-1): 980 nM
B3: IL-12(E59A/F60A)/PD-L2(WT)-Fc (Fc fusion)
chain 1: LFTVTVPKELYIIEHGSNVTLECNFDTGSHVNLGAITASLQKVENDTSPHRERATLLEEQLPLGKASFHIPQVQVRDEGQYQCIIIYGVAWDYKYLTLKVKASYRKINTHILKVPETDEVELTCQATGYPLAEVSWPNVSVPANTSHSRTPEGLYQVTSVLRLKPPPGRNFSCVFWNTHVRELTLASIDLQSQMEPRTHPTGSGIWELKKDVYVVELDWYPDAPGEMVVLTCDTPEEDGITWTLDQSSEVLGSGKTLTIQVKAAGDAGQYTCHKGGEVLSHSLLLLHKKEDGIWSTDILKDQKEPKNKTFLRCEAKNYSGRFTCWWLTTISTDLTFSVKSSRGSSDPQGVTCGAATLSAERVRGDNKEYEYSVECQEDSACPAAEESLPIEVMVDAVHKLKYENYTSSFFIRDIIKPDPPKNLQLKPLKNSRQVEVSWEYPDTWSTPHSYFSLTFCVQVQGKSKREKKDRVFTDKTSATVICRKNASISVRAQDRYYSSSWSEWASVPCSGGGGSGGGGSGGGGSGGGGSGRNLPVATPDPGMFPCLHHSQNLLRAVSNMLQKARQTLEFYPCTSEEIDHEDITKDKTSTVEACLPLELTKNESCLNSRETSFITNGSCLASRKTSFMMALCLSSIYEDLKMYQVEFKTMNAKLLMDPKRQIFLDQNMLAVIDELMQALNFNSETVPQKSSLEEPDFYKTKIKLCILLHAFRIRAVTIDRVMSYLNASDKTHTCPPCPAPEDEGGPSVFLFPPKPKDTLMISRTPEVTCVVVDVSHEDPEVKFNWYVDGVEVHNAKTKPREEQYNSTYRVVSVLTVLHQDWLNGKEYKCKVSNKALPAPIEKTISKAKGQPREPQVYVYPPSREEMTKNQVSLTCLVKGFYPSDIAVEWESNGQPENNYKTTPPVLDEDGSFALVSKLTVDKSRWQQGNVFSCSVMHEALHNHYTQKSLSLSPGK
chain 2: LFTVTVPKELYIIEHGSNVTLECNFDTGSHVNLGAITASLQKVENDTSPHRERATLLEEQLPLGKASFHIPQVQVRDEGQYQCIIIYGVAWDYKYLTLKVKASYRKINTHILKVPETDEVELTCQATGYPLAEVSWPNVSVPANTSHSRTPEGLYQVTSVLRLKPPPGRNFSCVFWNTHVRELTLASIDLQSQMEPRTHPTGSGDKTHTCPPCPAPEKKGGPSVFLFPPKPKDTLMISRTPEVTCVVVDVSHEDPEVKFNWYVDGVEVHNAKTKPREEQYNSTYRVVSVLTVLHQDWLNGKEYKCKVSNKALPAPIEKTISKAKGQPREPQVYVLPPSREEMTKNQVSLLCLVKGFYPSDIAVEWESNGQPENRYMTWPPVLDSDGSFFLYSKLTVDKSRWQQGNVFSCSVMHEALHNHYTQKSLSLSPGK
notes: also called IL-12(E59A/F60A)/PD-L2-Fc; construct #29
